# Patent US20230272012A1, “PEPTIDES AND METHODS OF USE” (REALTA LIFE SCIENCES, INC., priority 2020, published 2023)
# “Also recorded” adds a separate entry of the source. Bridge positions count the residues as written; N and C are the ends. Square brackets hold non-standard residues; d marks the D form. Ends that are not written are not given here. S5 = C=CCCC[C@](C)(N)C(=O)O; Sar = CNCC(=O)O
# How the values were obtained:
# Format in all cases: cell-based
# PD-1/PD-L1 interaction = target: T1, PD-1/PD-L1 interaction (Homo sapiens, UniProt Q15116+Q9NZQ7); assay: PD-1/PD-L1 Blockade Bioassay (Promega); details: increasing peptide concentrations; listed as RLS-0118
# T1 construct: host or cells: PD-1 effector cells; PD-L1 aAPC/CHO-K1 cells
# How it was run: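 PD-1 effector cells co-cultured with PD-L1 aAPC/CHO-K1 cells, with or without increasing concentrations of peptides; anti-PD-1 antibody as positive control. Blockade of PD-1/PD-L1 restores TCR signalling, read as NFAT-driven luciferase luminescence.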
# [1] = tested on: purified human Pan T-cells; assay: T-cell exhaustion protocol (Dynabeads re-stimulation); details: peptides 2 mg/ml at each stimulation; supernatant ELISA
# Description: Purified human pan-T-cells were subject to stimulation with Dynabeads every 48 hours over the period of 8 days with cells also receiving PIC1 peptides (2 mg/ml) at each stimulation. Cells not receiving Dynabeads were run in parallel to assess background levels of Caspase 3/7 signal. At the eighth day, cells were harvested and the levels of Caspase 3/7 determined by ELISA.
# Purified human pan-T-cells were subject to stimulation with Dynabeads every 48 hours over the period of 8 days with cells also receiving PIC1 peptides (2 mg/ml) at each stimulation. Cell supernatants were collected at each stimulation and levels of IL-2 and IFN-gamma assayed by ELISA.
# T-cell exhaustion is a form of T-cell dysfunction that occurs in cancer. It is defined by poor effector function, reduction in cytokine release (e.g., IL-2, TNF-alpha, IFN-gamma), sustained expression of inhibitory receptors (e.g., PD-1, LAG-3, CD244, CD160) with the progressive loss of effector function due to overstimulation. Exhaustion prevents optimal control of tumor growth. Exhausted T cells are prevalent in the tumor microenvironment (TME) and can lead to T-cell apoptosis. T-cell exhaustion is reversible, and pharmaceutical inhibition of T-cell exhaustion has been considered a promising strategy by many cancer researchers. To ascertain if PIC1 peptides could reverse T-cell exhaustion and increase T cell viability and effector function, a T-cell exhaustion protocol was developed. To induce T-cell exhaustion, purified human Pan T-cells were stimulated with T-Activator CD3/CD28 Dynabeads and cells are washed and re-stimulated every 48 hours. PIC1 peptides were added to the cells after each stimulation with Dynabeads. After three to four stimulations cells were harvested for readouts which consisted of assessing T-cell apoptosis by measuring Caspase 3/7 levels and production of cytokines IL-2 and IFN-gamma which is indicative of T-cell functionality. […] To further evaluate if PIC1 peptides could restore T-cell functionality in cells that have undergone the exhaustion protocol, the inventors next assessed production of cytokines IL-2 and IFN-gamma. Supernatants from the cells after each stimulation were collected and the cytokines measured by ELISA. […] The lower level of IFN-gamma signal compared to IL-2 was consistently seen in this assay.
# [2] = tested on: human umbilical endothelial vein cells (HUVECs); assay: LPS-induced (non-VEGF mediated) angiogenesis in HUVECs; details: peptides 10 mg/ml, LPS 10 ug/ml, overnight
# Description: HUVEC cells were incubated with the indicated PIC1 peptides followed by LPS addition and plating onto extracellular matrix. After overnight incubation, evidence of angiogenesis was determined by fluorescence microscopy. Cells receiving LPS and not receiving LPS served as positive and negative controls for angiogenesis.
# While VEGF-plays a major role in angiogenesis in cancer, other non-VEGF factors can induce angiogenesis to promote tumor growth. Currently there are no drugs on the market to inhibit non-VEGF mediated angiogenesis. To assess whether the PIC1 peptides could inhibit non-VEGF mediated angiogenesis, the inventors developed a model of angiogenesis using human umbilical endothelial vein cells (HUVECs) in which addition of lipopolysaccharide (LPS) induces angiogenesis. HUVECs were first incubated with Cell Trace Violet dye, followed by addition of PIC1 peptides (10 mg/ml) for 1 hour at 37° C. and then treated with 10 ug/ml of LPS and placement on an extracellular matrix to promote angiogenesis. Cells were incubated overnight at 37° C. in a humidified CO2 incubator. Cells were then visualized for tube formation indicative of angiogenesis by fluorescence microscopy.
# CTLA-4 = target: T2, CTLA-4 (Homo sapiens, UniProt P16410); assay: CTLA-4 Blockade Bioassay (Promega); parameters: host or cells: Jurkat T cells (CTLA-4 effector cells); aAPC/Raji cells; details: increasing concentrations
# T2 sequence (P16410 36-223): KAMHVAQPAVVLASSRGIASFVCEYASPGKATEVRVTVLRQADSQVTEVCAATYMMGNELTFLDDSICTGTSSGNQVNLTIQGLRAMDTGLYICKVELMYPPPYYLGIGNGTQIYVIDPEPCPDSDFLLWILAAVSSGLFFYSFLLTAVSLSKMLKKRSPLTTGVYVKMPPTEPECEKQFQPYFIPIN
# Description: CTLA-4 effector cells were incubated with aAPC/Raji Cells in the absence or presence of increasing concentrations of anti-CTLA-4 antibody (positive control), RLS-0127*, RLS-0130, RLS-0156, RLS-0170 and RLS-0174. Luminescence was detected in luminometer plate reader.
# To assess if PIC1 peptides could block CTLA-4 inhibitory activity in a cell-based assay, select peptides were screened in the CTLA-4 Blockade Bioassay (Promega). This bioluminescent cell-based assay is used to measure the potency and stability of molecules targeting CTLA-4 and consists of two genetically engineered cell lines: CTLA-4 effector cells: Jurkat T cells expressing human CTLA-4 and a luciferase reporter driven by a native promoter which responds to TCR/CD28 activation and aAPC/Raji Cells: Raji cells expressing an engineered cell surface protein designed to activate cognate TCRs in an antigen-independent manner and endogenously expressing CTLA-4 ligands CD80 and CD86. When the two cell types are co-cultured, CTLA-4 competes with CD28 for their shared ligands, CD80 and CD86 and thus inhibits CD28 pathway activation and promoter-mediated luminescence. Addition of a molecule that blocks the interaction of CTLA-4 with its ligands CD80 and CD86 results in promoter-mediated luminescence.
# T1 sequence (Q15116 25-288): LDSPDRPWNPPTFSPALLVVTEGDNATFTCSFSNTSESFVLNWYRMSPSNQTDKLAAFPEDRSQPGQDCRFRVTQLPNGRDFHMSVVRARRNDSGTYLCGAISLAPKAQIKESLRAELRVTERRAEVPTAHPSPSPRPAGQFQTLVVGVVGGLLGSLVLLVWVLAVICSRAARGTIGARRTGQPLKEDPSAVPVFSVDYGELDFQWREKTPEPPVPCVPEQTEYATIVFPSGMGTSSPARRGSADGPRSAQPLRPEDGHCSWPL
# T1 sequence (Q9NZQ7 19-290): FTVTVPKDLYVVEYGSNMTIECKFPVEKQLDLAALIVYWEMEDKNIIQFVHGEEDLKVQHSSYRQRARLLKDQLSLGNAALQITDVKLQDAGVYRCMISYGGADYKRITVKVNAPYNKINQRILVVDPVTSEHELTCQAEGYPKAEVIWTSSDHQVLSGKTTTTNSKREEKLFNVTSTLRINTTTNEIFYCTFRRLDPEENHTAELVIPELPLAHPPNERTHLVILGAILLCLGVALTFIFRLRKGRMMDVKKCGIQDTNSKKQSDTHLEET
substance,measurement,setting,value
IALILEP(Sar)S5CQES5AA (IALILEP[Sar][S5]CQE[S5]AA; staple 9-13) [PA-0118],inhibition of PD-1/PD-L1 inhibitory signaling (luminescence),PD-1/PD-L1 interaction,increase in luminescence indicative of inhibition of PD-1/PD-L1 inhibitory signaling; also recorded: able to inhibit PD-1/PD-L1 mediated cell signaling
same,IL-2 signal at stimulation 2,[1],did not
same,inhibition of LPS-induced angiogenesis (tube formation),[2],no signs of angiogenesis
same,inhibitory activity in CTLA-4 blockade bioassay (luminescence),CTLA-4,did not
